One data set has as its system CD45+:Sca1+ muscle cells. The data set is classed as cell-based.
For data set [1], the system named is Myf5nLacZ+ satellite cells. Description: Impact of cardiotoxin injection on myogenic progenitors in injured muscle. The data set is classed as in vivo, Myf5nLacZ mice. As to conditions: 18 hours post-ctx injection. On the procedure: For direct analysis of sorted cell populations, cells were washed and suspended in phosphate-buffered saline (PBS), and cytospun onto silanized slides (DAKO). X-gal staining was performed as described previously (Kablar, 1997, Development 124, 4729-4738).
5 to 8 week-old mice were anaesthetised with Halothane gas. 25 μl of 10 μM cardiotoxin (Latoxan) was injected directly into the TA muscle, using a 29 G 1/2 insulin syringe. For cell proliferation assays, 0.3 mg/kg of 5-bromo-deoxyuridine (BrdU, Sigma) was injected intraperitoneally 90 minutes prior to sacrificing animals. Cells that had incorporated BrdU were detected by flow cytometry using a FITC conjugated anti-BrdU antibody (ED Pharmingen). For sFRP experiments, 100 ng of recombinant sFRP 2 and 3 (R&D Systems) were injected into regenerating TA muscle. Control animals received injections of equal volumes of PBS. For analysis of total TA cell populations, 1×10^4 mononuclear cells were plated on collagen-coated chamber slides overnight and then stained with anti-Desmin antibody (DAKO) at 1:200. Donkey anti-mouse FITC (Chemicon) at 1:500 was used for secondary detection.

Experimental for CD45+:Sca1+ muscle cells: Mononuclear cells were washed twice with DMEM supplemented with 5% FBS, and suspended at a concentration of 2−3×10^6 cells/ml. […] Primary antibodies were diluted at 1:200, and Streptavidin Tri-Color Conjugate was diluted 1:1000. After two washes with DMEM at 4° C., cells were separated on a MoFlo cytometer (DakoCytomation), equipped with 3 lasers. Sort gates were strictly defined based on isotype control stained cells and single antibody staining. Dead cells and debris were excluded by gating on forward and side scatter profiles. Sorting was performed using single cell mode to achieve the highest possible purity. The purity of sorted populations was routinely >98%.
Primary myoblasts were isolated from hind limb muscle of 3-week old Balb/c mice, and maintained in HAM's F-10 medium (Invitrogen) supplemented with 20% FBS, and 2.5 ng/ml bFGF (Invitrogen).
For co-culture experiments, primary myoblasts or Wnt-expressing cells were mixed with purified CD45^+:Sca1^+ cells at a ratio of 1:1, and seeded on Collagen-coated 2-well Permanox Chamber Slides (Lab-Tek). The density was 2×10^4 cells/chamber for co-culture in growth conditions, and 4×10^4 cells/chamber for differentiation experiments. […] Fluoroscein or Rhodamine conjugated antibodies (Chemicon) were used for secondary detection. Cover slides were mounted and analyzed using a Zeiss Axioscop fluorescent microscope.

Turning to “Shh: recombinant Sonic Hedgehog (Shh-N, R&D Systems)”, the “increase in CD45+:Sca1+ cell survival” value with CD45+:Sca1+ muscle cells (100 ng/ml Shh) is 3-4 fold. Also, the “myogenic differentiation efficiency of CD45+:Sca1+ cells” value in the data set on CD45+:Sca1+ muscle cells (recombinant Shh at 10 or 100 ng/ml, cells alone or in co-culture with myoblasts) was “did not influence”.

As for cardiotoxin, the entries for the “reduction in the number of Myf5nLacZ+ cells relative to uninjured muscle” value in data set [1] and in data set [1] (listed as ctx) were approximately 30 fold and “approximately 30 fold”, respectively. The “number of Myf5nLacZ+ cells” value in data set [1] (uninjured muscle 4.1×10^4±1.6×10^4) is 1.18×10^3±1×10^3 cells/g tissue.

Source of the values: patent US7541183B2, “Growth and differentiation of adult muscle stem cells with activators or inhibitors of Wnt signaling” (Ottawa Health Research Institute, priority 2003, dated 2009).
